Assay results: PMC2680271

Experiments:
[1] = test system: KorA Y84A (IncP-1 plasmid (expressed in E. coli)); experiment: EMSA
[2] = test system: KorA WT (IncP-1 plasmid (expressed in E. coli)); experiment: EMSA

korAp fragment (220 bp, EcoRI-cut pSTM12)
K half [1]: 200 nM | K half [2]: 300 nM
